Literature values in patent publication US7214519B2, “Screening method for identifying heme independent modulators of soluble guanylyl cyclase (sGC) activity using αβCys105 mutant sGC” (Board of Regents of the University of Texas System, priority 2003, dated 2007).
Where two headings read alike, the source gives them in different places.

Target: T1, αβ^Phe105 sGC (Bos taurus, UniProt P16068+P19687, H105F)
T1 sequence (P16068 1-619 H105F): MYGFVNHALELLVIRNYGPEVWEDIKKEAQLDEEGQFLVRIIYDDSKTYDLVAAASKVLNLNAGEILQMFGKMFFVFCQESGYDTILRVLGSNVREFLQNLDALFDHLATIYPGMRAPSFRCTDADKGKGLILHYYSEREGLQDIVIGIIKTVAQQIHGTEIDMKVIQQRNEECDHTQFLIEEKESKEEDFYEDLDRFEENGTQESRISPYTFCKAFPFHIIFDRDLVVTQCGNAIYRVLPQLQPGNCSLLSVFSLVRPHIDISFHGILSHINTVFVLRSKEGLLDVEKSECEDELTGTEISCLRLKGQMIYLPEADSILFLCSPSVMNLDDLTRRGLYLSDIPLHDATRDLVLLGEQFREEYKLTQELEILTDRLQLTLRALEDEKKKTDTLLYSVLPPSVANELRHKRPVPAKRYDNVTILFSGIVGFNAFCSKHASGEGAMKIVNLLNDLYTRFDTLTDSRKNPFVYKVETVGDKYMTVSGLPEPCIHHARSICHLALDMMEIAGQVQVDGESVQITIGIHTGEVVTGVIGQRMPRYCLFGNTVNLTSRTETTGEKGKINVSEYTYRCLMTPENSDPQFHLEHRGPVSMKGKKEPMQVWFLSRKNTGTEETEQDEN
T1 sequence (P19687 1-691): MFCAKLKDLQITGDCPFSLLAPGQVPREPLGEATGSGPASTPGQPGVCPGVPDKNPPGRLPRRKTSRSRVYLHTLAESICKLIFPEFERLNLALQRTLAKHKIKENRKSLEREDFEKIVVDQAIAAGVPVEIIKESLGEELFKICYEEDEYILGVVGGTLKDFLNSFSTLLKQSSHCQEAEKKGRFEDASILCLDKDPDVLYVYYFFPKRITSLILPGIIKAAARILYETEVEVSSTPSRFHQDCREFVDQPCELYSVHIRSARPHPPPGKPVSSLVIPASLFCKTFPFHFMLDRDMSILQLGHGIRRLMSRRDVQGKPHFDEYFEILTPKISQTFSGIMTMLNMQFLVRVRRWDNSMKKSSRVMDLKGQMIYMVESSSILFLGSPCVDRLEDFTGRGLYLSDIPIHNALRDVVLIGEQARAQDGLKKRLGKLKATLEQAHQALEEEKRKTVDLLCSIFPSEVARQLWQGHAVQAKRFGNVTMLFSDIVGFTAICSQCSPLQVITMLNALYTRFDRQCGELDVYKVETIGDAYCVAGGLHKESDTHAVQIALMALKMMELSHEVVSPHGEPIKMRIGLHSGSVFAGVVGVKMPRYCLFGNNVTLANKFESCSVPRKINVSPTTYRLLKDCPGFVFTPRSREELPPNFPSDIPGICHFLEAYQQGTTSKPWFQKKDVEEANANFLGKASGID
Settings: cited from earlier work; for Specific activity: with DTT

B1: αβ^Phe105: bovine sGC with βHis105→Phe substitution, from the literature (40) (protein, UniProt P19687 1-691; P16068 1-619, looked up, variant H105F)
Guanylate cyclase soluble … 1: MFCAKLKDLQITGDCPFSLLAPGQVPREPLGEATGSGPASTPGQPGVCPGVPDKNPPGRLPRRKTSRSRVYLHTLAESICKLIFPEFERLNLALQRTLAKHKIKENRKSLEREDFEKIVVDQAIAAGVPVEIIKESLGEELFKICYEEDEYILGVVGGTLKDFLNSFSTLLKQSSHCQEAEKKGRFEDASILCLDKDPDVLYVYYFFPKRITSLILPGIIKAAARILYETEVEVSSTPSRFHQDCREFVDQPCELYSVHIRSARPHPPPGKPVSSLVIPASLFCKTFPFHFMLDRDMSILQLGHGIRRLMSRRDVQGKPHFDEYFEILTPKISQTFSGIMTMLNMQFLVRVRRWDNSMKKSSRVMDLKGQMIYMVESSSILFLGSPCVDRLEDFTGRGLYLSDIPIHNALRDVVLIGEQARAQDGLKKRLGKLKATLEQAHQALEEEKRKTVDLLCSIFPSEVARQLWQGHAVQAKRFGNVTMLFSDIVGFTAICSQCSPLQVITMLNALYTRFDRQCGELDVYKVETIGDAYCVAGGLHKESDTHAVQIALMALKMMELSHEVVSPHGEPIKMRIGLHSGSVFAGVVGVKMPRYCLFGNNVTLANKFESCSVPRKINVSPTTYRLLKDCPGFVFTPRSREELPPNFPSDIPGICHFLEAYQQGTTSKPWFQKKDVEEANANFLGKASGID
Guanylate cyclase soluble … 2: MYGFVNHALELLVIRNYGPEVWEDIKKEAQLDEEGQFLVRIIYDDSKTYDLVAAASKVLNLNAGEILQMFGKMFFVFCQESGYDTILRVLGSNVREFLQNLDALFDHLATIYPGMRAPSFRCTDADKGKGLILHYYSEREGLQDIVIGIIKTVAQQIHGTEIDMKVIQQRNEECDHTQFLIEEKESKEEDFYEDLDRFEENGTQESRISPYTFCKAFPFHIIFDRDLVVTQCGNAIYRVLPQLQPGNCSLLSVFSLVRPHIDISFHGILSHINTVFVLRSKEGLLDVEKSECEDELTGTEISCLRLKGQMIYLPEADSILFLCSPSVMNLDDLTRRGLYLSDIPLHDATRDLVLLGEQFREEYKLTQELEILTDRLQLTLRALEDEKKKTDTLLYSVLPPSVANELRHKRPVPAKRYDNVTILFSGIVGFNAFCSKHASGEGAMKIVNLLNDLYTRFDTLTDSRKNPFVYKVETVGDKYMTVSGLPEPCIHHARSICHLALDMMEIAGQVQVDGESVQITIGIHTGEVVTGVIGQRMPRYCLFGNTVNLTSRTETTGEKGKINVSEYTYRCLMTPENSDPQFHLEHRGPVSMKGKKEPMQVWFLSRKNTGTEETEQDEN
modifications: mutation in beta subunit
Q: With B1 as the molecule, how does the Specific activity (+NO) read?
A: 0.11 ± 0.03 µmol/min/mg

Q: And the Specific activity (Basal)?
A: 0.04 ± 0.03 µmol/min/mg

Q: What about the basal activity of the same molecule?
A: about 40 nmol/min/mg
